We go through one molecule from patent publication US20260029420A1, “ANTI-CB2 ANTIBODIES AND THEIR USE IN A FLOW CYTOMETRY ASSAY TO MEASURE CELL SURFACE CB2 EXPRESSION” (Hoffmann-La Roche Inc., priority 2022, published 2026).

The subject of one test is CHODukx negative. Put plainly: Immunoprecipitation from whole cell lysates, negative control. Conditions: CHODukx negative lysate. More on the design: key: “−” no signal; “+”-“+++++” signal intensity; “+”-“+++++” signal intensity; “+”-“+++++” signal intensity; “+”-“+++++” signal intensity; “+”-“+++++” signal intensity. The format is binding. How it is done: The positive clones (Table 1) were further characterized by immunofluorescence (IF; Table 2), Western Blot (Table 3, 1) and Immune precipitation (Table 4, 2) on full length hCB2, hCB1, mCB2 stable-transfected CHO-cell lines in addition to the 2 pANITA constructs.
For immunoprecipitation (IP), whole cell lysates were incubated with the respective antibodies. IP was performed according to established protocols and subsequent western blot as described herein above.

In test [1] the target is T1, cell surface CB2 on B-cells (Homo sapiens, UniProt P34972).
T1 construct: measured in whole blood samples from nine different healthy human volunteers of working-age; endogenous in cells; host or cells: B-cells (and basophils and other leukocytes) in human whole blood
Description: Flow cytometry detection of baseline cell surface CB2 on B-cells in untreated whole blood. Conditions: increasing antibody concentrations. The format is binding. How it is done: FIG. 5A and FIG. 5B: Comparison of different anti-hCB2 antibodies in detecting cell surface CB2 expression on B-cells. FIG. 5A: Flow cytometric analysis with increasing concentrations of hCB2 antibody 1/622 (black dots) and hCB2 clone 352110 (R&D Systems; dark rectangle). A fluorescence minus one (FMO) serves as control as well as the secondary PE labeled antibody alone (0 μg antibody/sample). FIG. 5B: Flow cytometric analysis with increasing concentrations of mouse IgG3 isotype control clone B10 (SBA; open dots), hCB2 antibody 1/622 (black dots), mouse IgG2b isotype control clone 26114 (R&D Systems; open rectangles) and hCB2 clone 352110 (R&D Systems; dark rectangles). The secondary PE labeled antibody alone serves as 0 μg antibody/sample control.
Detection of baseline expression of cell surface CB2 on B-cells was assessed for clone 1/622 and compared to a commercially available hCB2 antibody (R&D Systems; clone 352110) (5). The flow cytometry experiment was performed as described in Example 3 yet using untreated whole blood samples and using increasing concentrations of the respective anti-human CB2 antibody. […]
For determination of cell surface expression of CB2 on B-cells, median fluorescent intensity (MFI) was analyzed by gating around the CD45^+ CD3^− CD14^− CD19^+ B-cells (see gating strategy in FIG. 6A to FIG. 6E) and acquiring a minimum of 2000 events in this gate (FIG. 6F). […]
On the technique in general: In flow cytometry, cells or beads pass a laser one at a time.

T1 sequence (P34972 whole entry): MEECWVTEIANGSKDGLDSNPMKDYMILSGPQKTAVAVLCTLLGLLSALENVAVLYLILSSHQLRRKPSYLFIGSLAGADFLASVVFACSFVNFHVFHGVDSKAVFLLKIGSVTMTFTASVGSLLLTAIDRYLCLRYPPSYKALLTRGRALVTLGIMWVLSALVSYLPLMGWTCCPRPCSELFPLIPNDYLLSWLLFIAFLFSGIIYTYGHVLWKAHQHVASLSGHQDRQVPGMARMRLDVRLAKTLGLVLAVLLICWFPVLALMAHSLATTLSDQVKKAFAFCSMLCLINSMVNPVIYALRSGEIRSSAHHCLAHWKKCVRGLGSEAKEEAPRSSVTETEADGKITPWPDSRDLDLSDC

B1: hCB2-1/622: murine IgG3 monoclonal anti-human CB2 antibody, VH SEQ ID NO: 1, VL SEQ ID NO: 2, HC SEQ ID NO: 3, LC SEQ ID NO: 4 (antibody)
heavy: EVQLQQSGPELVKPGASVKISCKTSGYTFTEYTMHWVRQSHGKSLEWIGGIDRYNGDTYYNQKFKDKATLTVDRSSSTAYMELRSLTSEDSAVYFCARNGAMDYWGQGISVTVSSATTTAPSVYPLVPGCSDTSGSSVTLGCLVKGYFPEPVTVKWNYGALSSGVRTVSSVLQSGFYSLSSLVTVPSSTWPSQTVICNVAHPASKTELIKRIEPRIPKPSTPPGSSCPPGNILGGPSVFIFPPKPKDALMISLTPKVTCVVVDVSEDDPDVHVSWFVDNKEVHTAWTQPREAQYNSTFRVVSALPIQHQDWMRGKEFKCKVNNKALPAPIERTISKPKGRAQTPQVYTIPPPREQMSKKKVSLTCLVTNFFSEAISVEWERNGELEQDYKNTPPILDSDGTYFLYSKLTVDTDSWLQGEIFTCSVVHEALHNHHTQKNLSRSPGK
light: DVVMTQTPLSLPVSLGDQASISCRSSQSLVHSNGNTYLHWFLQKPGQSPKLLIYKVSIRFSGVPDRFSGSGSGTDFTLKISRVEAEDLGVYFCSQSTHVPPLTFGAGTKLELKRADAAPTVSIFPPSSEQLTSGGASVVCFLNNFYPKDINVKWKIDGSERQNGVLNSWTDQDSKDSTYSMSSTLTLTKDEYERHNSYTCEATHKTSTSPIVKSFNRNEC
As to B1, the Immunoprecipitation signal intensity result in the test with CHODukx negative is given as “−”. Besides, the “Median fluorescence intensity on B-cells” value in test [1] is “dose-dependent increase”.
